Reference: patent US20210388087A1 (Chugai, published 2021)

Tests used:
[1] = target: T1, biotin-labeled human CD137 fused to human IgG1 Fc fragment (human, UniProt Q07011 24-186, biotin-labeled); assay: bead ELISA, 1250 ng IgG, S/N over biotin-human Fc
T1 construct: also called human CD137-Fc; biotin-human CD137-Fc; not shown: human IgG1 Fc fragment

[2] = target: T2, Human CD137 ECD (human); assay: SPR (Biacore), affinity of single-mutation variant against parental H183/L072
T2 construct: also called human CD137 extracellular domain; hCD137
T2 sequence (chain, as listed by the source limits assumed): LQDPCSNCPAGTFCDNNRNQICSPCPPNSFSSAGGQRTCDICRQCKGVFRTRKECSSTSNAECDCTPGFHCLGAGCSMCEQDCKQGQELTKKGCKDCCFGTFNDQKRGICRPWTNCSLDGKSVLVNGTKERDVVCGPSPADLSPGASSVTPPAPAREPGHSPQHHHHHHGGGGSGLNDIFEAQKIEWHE

T1 sequence (Q07011 24-186 limits assumed): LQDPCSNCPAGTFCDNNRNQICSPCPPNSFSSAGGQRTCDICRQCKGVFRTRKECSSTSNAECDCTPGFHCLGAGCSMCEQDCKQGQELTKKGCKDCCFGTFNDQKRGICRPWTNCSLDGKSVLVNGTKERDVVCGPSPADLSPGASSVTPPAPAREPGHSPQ

Binder	binding result [1]	fold change of affinity for CD137 [2]
dBBDu222 (antibody, human IgG1, V domains shown, human IgG1; GLS3000 light chain) VH: QVQLVESGGGLVQPGRSLRLSCAASGFTISSAWMHWVRQAPGKGLEWVAQIKDRANGYAAYYAPSVKGRFTISRDDSKNSIYLQMNSLKTEDTAVYYCRYVHYATAYDGFYGFGVDAWGQGTTVTVSS VL: DIVMTQSPLSLPVTPGEPASISCRSSQSLVHSNRNTYLHWYQQKPGQAPRLLIYKVSNRFSGVPDRFSGSGSGTDFTLKISRVEAEDVGVYYCGQGTQVPYTFGQGTKLEIK	binds	–
Dual-Fab H183/L072 variant with single light chain mutation K50Y (Kabat) (antibody, name in Kabat numbering, V domains shown, expressed as an antibody in Expi293 and purified on Protein A; also called dBBDu183H / dBBDu072L K50Y) VH: QVQLVESGGGLVQPGRSLRLSCAASGFTFSNAWMHWVRQAPGKGLEWVAQIKDKGNAYAAYYAPSVKGRFTISRDDSKNSIYLQMNSLKTEDTAVYYCHYVHYASASTVLPAFGVDAWGQGTTVTVSS VL: DIVMTQSPLSLPVTPGEPASISCQASQELVHMNRNTYLHWYQQKPGQAPRLLIYYVSNRFPGVPDRFSGSGSGTDFTLKISRVEAEDVGVYYCAQGTSVPFTFGQGTKLEIK	–	0 fold
dBBDu174 (antibody, human IgG1, V domains shown, human IgG1; GLS3000 light chain) VH: QVQLVESGGGLVQPGRSLRLSCAASGFTFSSAWMHWVRQAPGKGLEWVAQIKDRASAYNAYYAESVKGRFTISRDDSKNSIYLQMNSLKTEDTAVYYCRYVHYPSYVSFLPYYGVDAWGQGTTVTVSS VL: DIVMTQSPLSLPVTPGEPASISCRSSQSLVHSNRNTYLHWYQQKPGQAPRLLIYKVSNRFSGVPDRFSGSGSGTDFTLKISRVEAEDVGVYYCGQGTQVPYTFGQGTKLEIK	binds	–
Dual-Fab H183/L072 variant with single light chain mutation R54Y (Kabat) (antibody, name in Kabat numbering, V domains shown, expressed as an antibody in Expi293 and purified on Protein A; also called dBBDu183H / dBBDu072L R54Y) VH: QVQLVESGGGLVQPGRSLRLSCAASGFTFSNAWMHWVRQAPGKGLEWVAQIKDKGNAYAAYYAPSVKGRFTISRDDSKNSIYLQMNSLKTEDTAVYYCHYVHYASASTVLPAFGVDAWGQGTTVTVSS VL: DIVMTQSPLSLPVTPGEPASISCQASQELVHMNRNTYLHWYQQKPGQAPRLLIYKVSNYFPGVPDRFSGSGSGTDFTLKISRVEAEDVGVYYCAQGTSVPFTFGQGTKLEIK	–	0.2 fold
Dual-Fab H183/L072 variant with single light chain mutation Q90Y (Kabat) (antibody, name in Kabat numbering, V domains shown, expressed as an antibody in Expi293 and purified on Protein A; also called dBBDu183H / dBBDu072L Q90Y) VH: QVQLVESGGGLVQPGRSLRLSCAASGFTFSNAWMHWVRQAPGKGLEWVAQIKDKGNAYAAYYAPSVKGRFTISRDDSKNSIYLQMNSLKTEDTAVYYCHYVHYASASTVLPAFGVDAWGQGTTVTVSS VL: DIVMTQSPLSLPVTPGEPASISCQASQELVHMNRNTYLHWYQQKPGQAPRLLIYKVSNRFPGVPDRFSGSGSGTDFTLKISRVEAEDVGVYYCAYGTSVPFTFGQGTKLEIK	–	0 fold
Dual-Fab H183/L072 variant with single light chain mutation F96Y (Kabat) (antibody, name in Kabat numbering, V domains shown, expressed as an antibody in Expi293 and purified on Protein A; also called dBBDu183H / dBBDu072L F96Y) VH: QVQLVESGGGLVQPGRSLRLSCAASGFTFSNAWMHWVRQAPGKGLEWVAQIKDKGNAYAAYYAPSVKGRFTISRDDSKNSIYLQMNSLKTEDTAVYYCHYVHYASASTVLPAFGVDAWGQGTTVTVSS VL: DIVMTQSPLSLPVTPGEPASISCQASQELVHMNRNTYLHWYQQKPGQAPRLLIYKVSNRFPGVPDRFSGSGSGTDFTLKISRVEAEDVGVYYCAQGTSVPYTFGQGTKLEIK	–	0.6 fold
Dual-Fab H183/L072 variant with single light chain mutation G91Y (Kabat) (antibody, name in Kabat numbering, V domains shown, expressed as an antibody in Expi293 and purified on Protein A; also called dBBDu183H / dBBDu072L G91Y) VH: QVQLVESGGGLVQPGRSLRLSCAASGFTFSNAWMHWVRQAPGKGLEWVAQIKDKGNAYAAYYAPSVKGRFTISRDDSKNSIYLQMNSLKTEDTAVYYCHYVHYASASTVLPAFGVDAWGQGTTVTVSS VL: DIVMTQSPLSLPVTPGEPASISCQASQELVHMNRNTYLHWYQQKPGQAPRLLIYKVSNRFPGVPDRFSGSGSGTDFTLKISRVEAEDVGVYYCAQYTSVPFTFGQGTKLEIK	–	0 fold
Dual-Fab H183/L072 variant with single light chain mutation F55Y (Kabat) (antibody, name in Kabat numbering, V domains shown, expressed as an antibody in Expi293 and purified on Protein A; also called dBBDu183H / dBBDu072L F55Y) VH: QVQLVESGGGLVQPGRSLRLSCAASGFTFSNAWMHWVRQAPGKGLEWVAQIKDKGNAYAAYYAPSVKGRFTISRDDSKNSIYLQMNSLKTEDTAVYYCHYVHYASASTVLPAFGVDAWGQGTTVTVSS VL: DIVMTQSPLSLPVTPGEPASISCQASQELVHMNRNTYLHWYQQKPGQAPRLLIYKVSNRYPGVPDRFSGSGSGTDFTLKISRVEAEDVGVYYCAQGTSVPFTFGQGTKLEIK	–	0 fold
Dual-Fab H183/L072 variant with single light chain mutation P56Y (Kabat) (antibody, name in Kabat numbering, V domains shown, expressed as an antibody in Expi293 and purified on Protein A; also called dBBDu183H / dBBDu072L P56Y) VH: QVQLVESGGGLVQPGRSLRLSCAASGFTFSNAWMHWVRQAPGKGLEWVAQIKDKGNAYAAYYAPSVKGRFTISRDDSKNSIYLQMNSLKTEDTAVYYCHYVHYASASTVLPAFGVDAWGQGTTVTVSS VL: DIVMTQSPLSLPVTPGEPASISCQASQELVHMNRNTYLHWYQQKPGQAPRLLIYKVSNRFYGVPDRFSGSGSGTDFTLKISRVEAEDVGVYYCAQGTSVPFTFGQGTKLEIK	–	0 fold

Now from value to binder:

binding result [1]	fold change of affinity for CD137 [2]	Binder
binds	–	dBBDu183 (antibody, human IgG1, V domains shown, human IgG1; GLS3000 light chain) VH: QVQLVESGGGLVQPGRSLRLSCAASGFTFSNAWMHWVRQAPGKGLEWVAQIKDKGNAYAAYYAPSVKGRFTISRDDSKNSIYLQMNSLKTEDTAVYYCHYVHYASASTVLPAFGVDAWGQGTTVTVSS VL: DIVMTQSPLSLPVTPGEPASISCRSSQSLVHSNRNTYLHWYQQKPGQAPRLLIYKVSNRFSGVPDRFSGSGSGTDFTLKISRVEAEDVGVYYCGQGTQVPYTFGQGTKLEIK
binds	–	dBBDu179 (antibody, human IgG1, V domains shown, human IgG1; GLS3000 light chain) VH: QVQLVESGGGLVQPGRSLRLSCAASGFTFSNAWMHWVRQAPGKGLEWVAQIKDRSNQYATYYAPSVKGRFTISRDDSKNSIYLQMNSLKTEDTAVYYCHYVHYASASTVLPAFGVDAWGQGTTVTVSS VL: DIVMTQSPLSLPVTPGEPASISCRSSQSLVHSNRNTYLHWYQQKPGQAPRLLIYKVSNRFSGVPDRFSGSGSGTDFTLKISRVEAEDVGVYYCGQGTQVPYTFGQGTKLEIK
–	0 fold	Dual-Fab H183/L072 variant with single light chain mutation A89Y (Kabat) (antibody, name in Kabat numbering, V domains shown, expressed as an antibody in Expi293 and purified on Protein A; also called dBBDu183H / dBBDu072L A89Y) VH: QVQLVESGGGLVQPGRSLRLSCAASGFTFSNAWMHWVRQAPGKGLEWVAQIKDKGNAYAAYYAPSVKGRFTISRDDSKNSIYLQMNSLKTEDTAVYYCHYVHYASASTVLPAFGVDAWGQGTTVTVSS VL: DIVMTQSPLSLPVTPGEPASISCQASQELVHMNRNTYLHWYQQKPGQAPRLLIYKVSNRFPGVPDRFSGSGSGTDFTLKISRVEAEDVGVYYCYQGTSVPFTFGQGTKLEIK
binds	–	dBBDu125 (antibody, human IgG1, V domains shown, human IgG1; GLS3000 light chain; also called DXDU01_3 #019; DXDU01_3_#019) VH: QVQLVESGGGLVQPGRSLRLSCAASGFTFSIAWMHWVRQAPGKGLEWVAQIKDKVNGYTAYYAESVKGRFTISRDDSKNSIYLQMNSLKTEDTAVYYCRYVHYAAYYDVLGYGGVDAWGQGTTVTVSS VL: DIVMTQSPLSLPVTPGEPASISCRSSQSLVHSNRNTYLHWYQQKPGQAPRLLIYKVSNRFSGVPDRFSGSGSGTDFTLKISRVEAEDVGVYYCGQGTQVPYTFGQGTKLEIK
–	0.3 fold	Dual-Fab H183/L072 variant with single light chain mutation N53Y (Kabat) (antibody, name in Kabat numbering, V domains shown, expressed as an antibody in Expi293 and purified on Protein A; also called dBBDu183H / dBBDu072L N53Y) VH: QVQLVESGGGLVQPGRSLRLSCAASGFTFSNAWMHWVRQAPGKGLEWVAQIKDKGNAYAAYYAPSVKGRFTISRDDSKNSIYLQMNSLKTEDTAVYYCHYVHYASASTVLPAFGVDAWGQGTTVTVSS VL: DIVMTQSPLSLPVTPGEPASISCQASQELVHMNRNTYLHWYQQKPGQAPRLLIYKVSYRFPGVPDRFSGSGSGTDFTLKISRVEAEDVGVYYCAQGTSVPFTFGQGTKLEIK
–	0 fold	Dual-Fab H183/L072 variant with single light chain mutation P95Y (Kabat) (antibody, name in Kabat numbering, V domains shown, expressed as an antibody in Expi293 and purified on Protein A; also called dBBDu183H / dBBDu072L P95Y) VH: QVQLVESGGGLVQPGRSLRLSCAASGFTFSNAWMHWVRQAPGKGLEWVAQIKDKGNAYAAYYAPSVKGRFTISRDDSKNSIYLQMNSLKTEDTAVYYCHYVHYASASTVLPAFGVDAWGQGTTVTVSS VL: DIVMTQSPLSLPVTPGEPASISCQASQELVHMNRNTYLHWYQQKPGQAPRLLIYKVSNRFPGVPDRFSGSGSGTDFTLKISRVEAEDVGVYYCAQGTSVYFTFGQGTKLEIK
